In US20250230251A1 (Bristol-Myers Squibb, published 2025):
Substitutions are numbered along the chain they refer to.

How the values were obtained:
cyIL-18Rβ-HisAvi [1] = molecular target: T1, cyIL-18Rβ-HisAvi (cynomolgus monkey); assay: SPR T200, mAb on anti-hFc, 37C, pH 6
T1 construct: Soluble analyte in SPR; also called cyno IL-18Rβ; cynomolgus monkey IL-18Rβ
T1 chain: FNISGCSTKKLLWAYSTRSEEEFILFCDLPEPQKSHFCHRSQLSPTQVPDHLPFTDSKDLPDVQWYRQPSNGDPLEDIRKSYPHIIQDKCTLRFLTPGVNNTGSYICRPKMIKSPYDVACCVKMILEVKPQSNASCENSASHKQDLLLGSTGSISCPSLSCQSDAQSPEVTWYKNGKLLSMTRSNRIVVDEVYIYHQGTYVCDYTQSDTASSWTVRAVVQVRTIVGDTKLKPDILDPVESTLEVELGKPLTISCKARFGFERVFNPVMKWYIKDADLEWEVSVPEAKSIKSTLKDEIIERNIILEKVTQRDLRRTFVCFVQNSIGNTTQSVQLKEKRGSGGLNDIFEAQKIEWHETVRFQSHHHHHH

huIL-18Rβ-HisAvi [2] = molecular target: T2, huIL-18Rβ-HisAvi (human, UniProt O95256 20-356, biotinylated in the Octet blocking assay); assay: SPR T200, mAb on anti-hFc, 37C, pH 6
T2 construct: Soluble analyte in all SPR runs; captured on streptavidin sensors in the Octet assay; also called human IL-18Rβ; human IL-18Rβ-Avi-His
T2 sequence: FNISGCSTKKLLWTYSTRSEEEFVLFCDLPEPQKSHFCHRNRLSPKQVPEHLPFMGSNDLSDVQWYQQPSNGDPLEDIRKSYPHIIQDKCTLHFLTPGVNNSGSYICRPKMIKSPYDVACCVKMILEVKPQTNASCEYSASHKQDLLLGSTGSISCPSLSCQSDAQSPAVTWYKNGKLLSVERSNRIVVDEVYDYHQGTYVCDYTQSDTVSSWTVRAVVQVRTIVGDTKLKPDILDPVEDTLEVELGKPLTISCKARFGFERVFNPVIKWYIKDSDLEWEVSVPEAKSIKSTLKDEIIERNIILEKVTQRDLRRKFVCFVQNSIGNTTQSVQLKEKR

human IL-18Rβ on cells [3] = molecular target: T3, human IL-18Rβ on cells (human, UniProt O95256 20-599); assay: cell-based or functional assay
T3 sequence: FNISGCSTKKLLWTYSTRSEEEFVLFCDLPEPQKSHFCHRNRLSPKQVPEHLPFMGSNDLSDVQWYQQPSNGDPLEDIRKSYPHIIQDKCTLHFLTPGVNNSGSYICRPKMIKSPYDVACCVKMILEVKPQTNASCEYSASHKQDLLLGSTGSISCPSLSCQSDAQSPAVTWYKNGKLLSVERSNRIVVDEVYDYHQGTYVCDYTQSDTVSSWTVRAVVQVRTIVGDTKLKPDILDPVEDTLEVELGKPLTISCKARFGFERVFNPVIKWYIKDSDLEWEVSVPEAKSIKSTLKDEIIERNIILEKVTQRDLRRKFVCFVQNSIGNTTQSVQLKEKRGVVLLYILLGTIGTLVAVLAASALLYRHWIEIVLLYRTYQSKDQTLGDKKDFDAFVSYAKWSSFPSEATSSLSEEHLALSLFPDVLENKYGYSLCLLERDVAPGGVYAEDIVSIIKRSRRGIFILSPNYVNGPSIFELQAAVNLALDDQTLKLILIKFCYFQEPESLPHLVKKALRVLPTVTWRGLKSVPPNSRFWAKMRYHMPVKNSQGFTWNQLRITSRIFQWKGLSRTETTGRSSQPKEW

cyIL-18Rβ-HisAvi [4] = molecular target: T1, cyIL-18Rβ-HisAvi; assay: SPR T200, mAb on anti-hFc, 37C, pH 7.4
huIL-18Rβ-HisAvi [5] = molecular target: T2, huIL-18Rβ-HisAvi; assay: SPR T200, mAb on anti-hFc, 37C, pH 7.4
huIL-18Rβ-HisAvi [6] = molecular target: T2, huIL-18Rβ-HisAvi; assay: SPR T200, pH 5 against pH 7.4
huIL-18Rβ-HisAvi [7] = molecular target: T2, huIL-18Rβ-HisAvi; assay: SPR T200, pH 7.4; sample stored at pH 8, T0
cyIL-18Rβ-HisAvi [8] = molecular target: T1, cyIL-18Rβ-HisAvi; assay: SPR T200, mAb on anti-hFc, 37C, pH 7.4
huIL-18Rβ-HisAvi [9] = molecular target: T2, huIL-18Rβ-HisAvi; assay: SPR T200, mAb on anti-hFc, 37C, pH 7.4; remark: listed apart in the source
cyIL-18Rβ-HisAvi [10] = molecular target: T1, cyIL-18Rβ-HisAvi; assay: SPR T200, mAb on anti-hFc, 37C, pH 6
huIL-18Rβ-HisAvi [11] = molecular target: T2, huIL-18Rβ-HisAvi; assay: SPR T200, mAb on anti-hFc, 37C, pH 6; remark: listed apart in the source
cyIL-18Rβ-HisAvi [12] = molecular target: T1, cyIL-18Rβ-HisAvi; assay: SPR screen, 1:1 fit
huIL-18Rβ-HisAvi [13] = molecular target: T2, huIL-18Rβ-HisAvi; assay: SPR screen, 1:1 fit
human IL-18Rβ on cells [14] = molecular target: T3, human IL-18Rβ on cells; assay: cell-based or functional assay; remark: listed apart in the source
huIL-18Rβ-HisAvi [15] = molecular target: T2, huIL-18Rβ-HisAvi; assay: SPR T200, mAb on anti-hFc, 37C, pH 7.4; remark: listed apart in the source

B1: P20 (antibody, human IgG1, kappa)
heavy: QVQLQQSGPGLVKPSETLSLTCTVSGGSINNYYWSWIRQPPGKGLEWIGYIFYSGTTNYNPSLKSRVTISVDTSKNQFSLKLSSVTAADTAVYYCARDVGIAARNSYYYVMDVWGQGTTVTVSSASTKGPSVFPLAPSSKSTSGGTAALGCLVKDYFPEPVTVSWNSGALTSGVHTFPAVLQSSGLYSLSSVVTVPSSSLGTQTYICNVNHKPSNTKVDKRVEPKSCDKTHTCPPCPAPEAEGAPSVFLFPPKPKDTLMISRTPEVTCVVVDVSHEDPEVKFNWYVDGVEVHNAKTKPREEQYNSTYRVVSVLTVLHQDWLNGKEYKCKVSNKALPAPIEKTISKAKGQPREPQVYTLPPSREEMTKNQVSLTCLVKGFYPSDIAVEWESNGQPENNYKTTPPVLDSDGSFFLYSKLTVDKSRWQQGNVFSCSVMHEALHNHYTQKSLSLSPG
light: AIQLTQSPSSLSASVGDRVTITCRASQGISSALAWYQQKPGKAPKFLIYDASSLESGVPSRFSGSGSGTDFTLTISSLQPEDFATYYCQQFNSYPITFGQGTRLEIKRTVAAPSVFIFPPSDEQLKSGTASVVCLLNNFYPREAKVQWKVDNALQSGNSQESVTEQDSKDSTYSLSSTLTLSKADYEKHKVYACEVTHQGLSSPVTKSFNRGEC
notes: Human IgG
cyIL-18Rβ-HisAvi [1]
  Kd: 1.6 nM
  koff: 0.00028 s⁻¹
  kon: 180000 M⁻¹ s⁻¹
huIL-18Rβ-HisAvi [2]
  apparent Kd (pooled screen): 0.43 nM
  apparent koff (pooled screen): 0.00016 s⁻¹
  apparent kon (pooled screen): 380000 M⁻¹ s⁻¹
Human IL-18Rβ on cells [3]
  IC50, LPS+IL-12 dependent IFNg production, human whole blood: 0.7 nM
  y-max, LPS+IL-12 dependent IFNg production, human whole blood: 98%
cyIL-18Rβ-HisAvi [4]
  Kd: 1.4 nM
  koff: 0.00024 s⁻¹
  kon: 180000 M⁻¹ s⁻¹
huIL-18Rβ-HisAvi [5]
  apparent Kd (pooled screen): 0.51 nM
  apparent koff (pooled screen): 0.00017 s⁻¹
  apparent kon (pooled screen): 330000 M⁻¹ s⁻¹
huIL-18Rβ-HisAvi [6]
  KD ratio (KD pH 5/KD pH 7): 1.08
  kd ratio (kd pH 5/kd pH 7): 0.63
huIL-18Rβ-HisAvi [7]
  apparent Kd (pooled screen): 1.6 nM
  apparent koff (pooled screen): 0.00035 s⁻¹
  apparent kon (pooled screen): 220000 M⁻¹ s⁻¹
cyIL-18Rβ-HisAvi [8]
  Kd: 1.4 nM
  koff: 0.00024 s⁻¹
  kon: 180000 M⁻¹ s⁻¹
huIL-18Rβ-HisAvi [9]
  apparent Kd (pooled screen): 0.51 nM
  apparent koff (pooled screen): 0.00017 s⁻¹
cyIL-18Rβ-HisAvi [10]
  Kd: 1.6 nM
  koff: 0.00028 s⁻¹
  kon: 180000 M⁻¹ s⁻¹
huIL-18Rβ-HisAvi [11]
  apparent Kd (pooled screen): 0.43 nM
  apparent koff (pooled screen): 0.00016 s⁻¹
  apparent kon (pooled screen): 380000 M⁻¹ s⁻¹
cyIL-18Rβ-HisAvi [12]
  Kd: 3.8 nM
huIL-18Rβ-HisAvi [13]
  apparent Kd (pooled screen): 1.4 nM
Human IL-18Rβ on cells [14]
  IC50, IL-18-induced IFNγ release, KG-1 cells: 0.2 nM
huIL-18Rβ-HisAvi [15]
  apparent Kd (pooled screen): 1.8 nM
  apparent koff (pooled screen): 0.00032 s⁻¹
  apparent kon (pooled screen): 180000 M⁻¹ s⁻¹

B2: P20-V1 (antibody, human IgG1, kappa, V domains shown)
VH: QVQLQESGPGLVKPSETLSLTCTVSGGSINNYYWSWIRQPPGKGLEWIGYIFYSGTTNYNPSLKSRVTISVDTSKNQFSLKLSSVTAADTAVYYCARDVGIAARNSYYYVMDVWGQGTTVTVSS
VL: AIQLTQSPSSLSASVGDRVTITCRASQGISSALAWYQQKPGKAPKFLIYEASSLESGVPSRFSGSGSGTDFTLTISSLQPEDFATYYCQQFNSYPITFGQGTRLEIKR
notes: Variant of P20
cyIL-18Rβ-HisAvi [8]
  Kd: 1.4 nM
  koff: 0.00028 s⁻¹
  kon: 200000 M⁻¹ s⁻¹
huIL-18Rβ-HisAvi [9]
  Kd: 0.43 nM
  koff: 0.00015 s⁻¹
  kon: 340000 M⁻¹ s⁻¹
cyIL-18Rβ-HisAvi [10]
  Kd: 1.7 nM
  koff: 0.00028 s⁻¹
  kon: 160000 M⁻¹ s⁻¹
huIL-18Rβ-HisAvi [11]
  Kd: 0.45 nM
  koff: 0.00015 s⁻¹
  kon: 340000 M⁻¹ s⁻¹

B3: P21 (antibody, human IgG1, kappa, V domains shown)
VH: QVQLQQSGPGLVKPSETLSLTCTVSGGSISNYYWTWIRQPPGKGLEWIGYISDSGSTNYNPSLKSRVTISVDTSKNQFSLKLSSVTAADTAVYYCARETIVVRGFYFYVMDVWGQGTTVTVSS
VL: B2 VL with K39R, F46L, E50D, S53N, L54W, I96W, R103K, L104V
notes: Human IgG
cyIL-18Rβ-HisAvi [1]
  Kd: 11 nM
  koff: 0.002 s⁻¹
  kon: 180000 M⁻¹ s⁻¹
huIL-18Rβ-HisAvi [2]
  Kd: 0.65 nM
  koff: 0.00031 s⁻¹
  kon: 480000 M⁻¹ s⁻¹
Human IL-18Rβ on cells [3]
  IC50, LPS+IL-12 dependent IFNg production, human whole blood: 0.3 nM
  y-max, LPS+IL-12 dependent IFNg production, human whole blood: 98%
cyIL-18Rβ-HisAvi [4]
  Kd: 19 nM
  koff: 0.0029 s⁻¹
  kon: 150000 M⁻¹ s⁻¹
huIL-18Rβ-HisAvi [5]
  Kd: 1.8 nM
  koff: 0.00043 s⁻¹
  kon: 240000 M⁻¹ s⁻¹
huIL-18Rβ-HisAvi [6]
  KD ratio (KD pH 5/KD pH 7): 1.09
  kd ratio (kd pH 5/kd pH 7): 0.79
huIL-18Rβ-HisAvi [7]
  Kd: 1.5 nM
  koff: 0.00037 s⁻¹
  kon: 250000 M⁻¹ s⁻¹
cyIL-18Rβ-HisAvi [8]
  Kd: 19 nM
  koff: 0.0029 s⁻¹
  kon: 150000 M⁻¹ s⁻¹
huIL-18Rβ-HisAvi [9]
  Kd: 1.8 nM
  koff: 0.00043 s⁻¹
  kon: 240000 M⁻¹ s⁻¹
cyIL-18Rβ-HisAvi [10]
  Kd: 11 nM
  koff: 0.002 s⁻¹
  kon: 180000 M⁻¹ s⁻¹
huIL-18Rβ-HisAvi [11]
  Kd: 0.65 nM
  koff: 0.00031 s⁻¹
  kon: 480000 M⁻¹ s⁻¹
cyIL-18Rβ-HisAvi [12]
  Kd: 18 nM
huIL-18Rβ-HisAvi [13]
  Kd: 1.4 nM
Human IL-18Rβ on cells [14]
  IC50, IL-18-induced IFNγ release, KG-1 cells: 0.7 nM
huIL-18Rβ-HisAvi [15]
  Kd: 2.3 nM
  koff: 0.0005 s⁻¹
  kon: 220000 M⁻¹ s⁻¹
